Reference: patent US20260167693A1

Target: human CD19 (human) (UniProt P15391)
Assay: cell-based or functional assay

Sequence of human CD19 (human) (P15391 20-556): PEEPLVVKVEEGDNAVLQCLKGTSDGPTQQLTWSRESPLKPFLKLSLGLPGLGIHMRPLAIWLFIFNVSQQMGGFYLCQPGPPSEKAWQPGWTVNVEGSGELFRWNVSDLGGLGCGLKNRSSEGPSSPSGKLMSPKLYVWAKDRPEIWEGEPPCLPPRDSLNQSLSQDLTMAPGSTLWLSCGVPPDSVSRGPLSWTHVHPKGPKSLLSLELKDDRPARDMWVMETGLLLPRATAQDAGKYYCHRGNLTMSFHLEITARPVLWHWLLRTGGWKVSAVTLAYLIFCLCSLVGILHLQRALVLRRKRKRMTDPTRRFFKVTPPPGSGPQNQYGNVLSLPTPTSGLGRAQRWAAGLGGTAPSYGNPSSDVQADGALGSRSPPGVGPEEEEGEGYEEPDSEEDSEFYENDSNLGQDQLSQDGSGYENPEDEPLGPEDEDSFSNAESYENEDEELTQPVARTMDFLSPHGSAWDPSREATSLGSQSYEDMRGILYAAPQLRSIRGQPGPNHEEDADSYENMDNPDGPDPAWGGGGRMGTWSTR

CD8SP-CD19BU12(vL-vH)-MYC-BBz-PAC showed an NFAT-GFP (%) after overnight co-culture with RAJI cells of 30.2%.
